Data from US12103951B2, “Use of CGRP receptor antagonists in neuroprotection and neurological disorders” (priority 2016, dated 2024).
Entries after “also recorded” stand apart in the source; their conditions may differ.

Columns and labels:
[1] = 14-day subcutaneous rat study: mortality, clinical signs, body weight, feed consumption; assay type: in vivo, Sprague Dawley rats; conditions: s.c. daily 14 days
Method: Sprague Dawley rats were administered the CGRP antagonist daily via the subcutaneous route for a period of 14 days, resulting in the surprising effect of LDL lowering. Fifty six animals (36 males and 20 females) were distributed into four groups (consisting each of 5 males and 5 females per group and 4 extra males each for testing group as backups). The groups were as follows: G1—Control, G2—Low dose—100 mcg/kg, G3—Intermediate dose—300 mcg/kg, G4—High dose—1000 mcg/kg.
Rats from the treatment groups were dosed subcutaneously with CGRP receptor antagonists (SEQ ID NO: 1) reconstituted with normal saline at different dose levels per treatment group for 14 days. Control animals were dosed with the vehicle alone.
The acclimatization period was, at a minimum, 7 days. For the randomization, animals were selected and grouped based on stratified randomization by using body weights one day before dosing (day 0) using an Excel program. The route of administration of the antagonist was by a subcutaneous method. The frequency of the administration was daily for fourteen days. The dose volume was set at 5 ml/kg of body weight. The duration of the treatment was fourteen days with administration occurring approximately at the same time each day.
The following observations were recorded: • 1. […] Body Weight • Body weight was recorded on day 1, 7, 11 and 15. • 3. Feed Consumption • Feed consumption was recorded daily and reported weekly. • 4. Blood Collection and Laboratory Investigations • Blood samples for were collected from all animals on day 15. The animals were fasted overnight before blood sampling but allowed access to water ad libitum for hematology and biochemistry. Blood samples were drawn from the retro-orbital plexus using a micro-hematocrit heparinized glass capillary tube. Blood samples were centrifuged (3500 rpm) and after centrifugation plasma was separated for further analysis.

[2] = test system: retinal ganglion cell (RGC); assay: Rat laser glaucoma model: number of RGCs (Brn3a positive cells) in retinal whole mounts; assay type: in vivo, Wistar rats
Method: In this study, Wistar rats (n=12) were used for the experiments. The neuroprotective properties of compounds were investigated in a rat laser model of glaucoma. Rats were divided into two groups of six rats each. One group served as a placebo control receiving vehicle (NaCl) injections, and the other was treated with a peptide CGRP receptor antagonist (SEQ ID NO: 1). For all 12 rats, the contralateral, untreated eye served as a naïve undiseased control. The vehicle control and test compound (20 mg/kg) were administered systemically (IP) daily for the whole follow-up period of two weeks. The animals were sacrificed using transcardial perfusion. […] The number of Brn3a positive profiles was manually counted from retinal images taken from central and peripheral parts of retina. […]
1. Quantification of Brn3a and GFAP-positive cells from retinal whole mounts manually and using stereology. […]
Retinal whole mounts were immuno-stained against RGC (Brn3a) and astrocytic (GFAP) antibodies and the number of cells was quantified either manually (Brn3a) or as previously described (Kalesnykas et al., 2008).
The retinas were immuno-stained against RGC specific antibody Brn3a, retinas were imaged and Brn3a positive profiles were counted manually using Image J software (NIH, Bethesda, Maryland, USA). […]

[3] = test system: optic nerve axons; assay: Rat laser glaucoma model: total number of optic nerve axons (stereology); assay type: in vivo, Wistar rats; conditions: IP daily for two weeks; for total number of optic nerve axons, lasered vs contralateral control eyes: paired sample t-test, P>0.05
Method: In this study, Wistar rats (n=12) were used for the experiments. The neuroprotective properties of compounds were investigated in a rat laser model of glaucoma. Rats were divided into two groups of six rats each. One group served as a placebo control receiving vehicle (NaCl) injections, and the other was treated with a peptide CGRP receptor antagonist (SEQ ID NO: 1). For all 12 rats, the contralateral, untreated eye served as a naïve undiseased control. The vehicle control and test compound (20 mg/kg) were administered systemically (IP) daily for the whole follow-up period of two weeks. The animals were sacrificed using transcardial perfusion. The retinal whole-mounts were then immuno-stained against retinal ganglion cell (RGC) marker Brn3a and astrocytic marker GFAP (glial fibrillary acidic protein). The number of Brn3a positive profiles was manually counted from retinal images taken from central and peripheral parts of retina. The total number of GFAP-immunoreactive cells (retinal astrocytes) was estimated using stereology. The total number of RGC axons in the optic nerve was estimated using stereology.
The rat glaucoma model was induced unilaterally by laser photocoagulation of episcleral veins as previously described (Kalesnykas et al., 2007). Anesthesia was performed using sodium pentobarbital (30 mg/kg). […]
2. Quantification of optic nerve axons using stereology. […]
After the optic nerves were post-fixed in 4% PFA (in 0.1M phosphate buffer, pH 7.4) solution, they were placed in 1% osmium, dehydrated in ascending alcohol concentration and placed in 1% uranyl acetate in 100% ethanol for 1 hour (Cone et al., 2012). […] Briefly, axons were counted manually using the Stereo Investigator software (MicroBrightField, VT, USA). […]
Quantitative data was graphed, analyzed and presented as mean±standard deviation (SD) or standard error of mean (SEM). Parametric data was analyzed using paired-samples T-test (the contralateral eye of the same animal serves as control). Non-parametric data was analyzed using Mann-Whitney U test (comparison of 2 groups) or Wilcoxon paired-samples T-test. […]

[4] = Rat laser glaucoma model: weight of animals; assay type: in vivo, Wistar rats

NH2-Ala-Cys-Asp-Thr-Ala-Ala-Cys-Val-Leu-Gly-Arg-Leu-Ser-Gln-Glu-Leu-His-Arg-Leu-Gln-Thr-Tyr-Pro-Arg-Thr-Asn-Val-Gly-Ser-Lys-Ala-Phe-NH2 (H-ACDTAACVLGRLSQELHRLQTYPRTNVGSKAF-NH2; ends and bridges not checked) [SEQ ID NO: 1, peptide CGRP receptor antagonist]
food consumption ([1]; all study groups): normal | body weight among the groups [1]: no statistically significant difference | mortality or morbidity ([1]; 100, 300, 1000 mcg/kg): no mortality or morbidity | clinical signs ([1]; high dose = 1000 mcg/kg, all animals normalized from day 12): no clinical signs were observed during the entire study period except for four males from the high dose group that showed lethargy on day 10 | number of Brn3a positive cells, increase in lasered eyes vs contralateral control eyes ([2]; IP daily for two weeks, increase, P=0.43): 3.0% | neuroprotection at cellular and optic nerve axon levels ([2]; rat glaucoma model, systemic administration): showed neuroprotection | total number of optic nerve axons, increase vs optic nerves from contralateral control eyes ([3]; increase): 1.7% | total number of optic nerve axons, lasered vs contralateral control eyes [3]: did not differ significantly; also recorded: smallest decrease in the total number of axons | total number of optic nerve axons, lasered vs contralateral control eyes ([3]; listed as CGRP antagonist): slight increase | difference in the weight between the groups ([4]; Mann-Whitney U test, P>0.05): no significant difference | Baseline weight ([4]; mean ± SD, baseline): 538 ± 21 g | Weight prior to sacrifice ([4]; mean ± SD, end of two-week study): 524 ± 27 g
